According to patent US20250297004A1, “NECTIN-4 BINDING AGENTS” (INNATE PHARMA, priority 2022, published 2025):
Changes are numbered by the printed parent chain.

T1: human Nectin-4 Mutant 4 (human, UniProt Q96NY8 32-510)
T1 construct: Expressed on transfected HEK293T cells; also called A72P/G73N/G75S
T1 chain: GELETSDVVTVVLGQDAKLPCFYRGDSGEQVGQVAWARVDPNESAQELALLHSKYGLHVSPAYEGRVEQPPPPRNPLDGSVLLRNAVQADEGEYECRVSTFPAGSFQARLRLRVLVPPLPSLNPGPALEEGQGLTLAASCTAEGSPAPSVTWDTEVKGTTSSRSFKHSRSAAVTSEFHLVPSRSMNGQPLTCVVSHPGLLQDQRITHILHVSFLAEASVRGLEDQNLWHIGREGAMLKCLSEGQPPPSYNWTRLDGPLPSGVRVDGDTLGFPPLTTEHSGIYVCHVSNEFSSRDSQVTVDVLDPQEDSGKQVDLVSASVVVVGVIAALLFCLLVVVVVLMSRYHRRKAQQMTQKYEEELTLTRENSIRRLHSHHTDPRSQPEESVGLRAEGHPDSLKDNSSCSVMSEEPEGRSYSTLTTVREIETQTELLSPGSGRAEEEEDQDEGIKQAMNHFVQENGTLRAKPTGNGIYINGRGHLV

T2: human Nectin-4 Mutant 2 (human, UniProt Q96NY8 32-510)
T2 construct: Expressed on transfected HEK293T cells; also called V90S/P92A/A93S/E95A/G96D
T2 chain: T1 chain with P41A, N42G, S44G, V59S, P61A, A62S, E64A, G65D

T3: human Nectin-4 Mutant 9 (human, UniProt Q96NY8 32-510)
T3 construct: Expressed on transfected HEK293T cells; also called L150S/S152A/Q234R/I236S
T3 chain: T1 chain with P41A, N42G, S44G, L119S, S121A, Q203R, I205S

T4: human Nectin-4 Mutant 6 (human, UniProt Q96NY8 32-510)
T4 construct: Expressed on transfected HEK293T cells; also called H238A/I239T/H241Q
T4 chain: T1 chain with P41A, N42G, S44G, H207A, I208T, H210Q

T5: wild-type human Nectin-4 protein (Nectin4-His-BirA) (Homo sapiens, UniProt Q96NY8)
T5 construct: human Nectin4-His-BirA protein diluted to 5 μg/mL in Kinetic buffer 10× were captured onto the biosensors; BirA (biotinylation acceptor tag) (C)
T5 sequence (Q96NY8 with tags, fused parts or gaps): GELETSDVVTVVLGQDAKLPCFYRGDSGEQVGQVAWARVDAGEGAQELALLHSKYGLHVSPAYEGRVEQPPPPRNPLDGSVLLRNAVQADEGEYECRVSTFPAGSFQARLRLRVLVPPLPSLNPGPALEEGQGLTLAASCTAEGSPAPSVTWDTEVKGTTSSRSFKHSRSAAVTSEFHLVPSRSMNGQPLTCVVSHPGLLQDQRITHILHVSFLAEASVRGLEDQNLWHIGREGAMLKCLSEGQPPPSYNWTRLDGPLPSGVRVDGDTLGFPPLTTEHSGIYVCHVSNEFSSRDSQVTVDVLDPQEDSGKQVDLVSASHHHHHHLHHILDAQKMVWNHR

B1: chimeric parental 5E7 antibody (antibody, V domains shown)
VH: QVQLQQPGAELVKPGASVKLSCKASGYIFTSYWMHWVKQRPGQGLEWIGEIDPSDSYTNYNQKFKGKATLTLDKSSSTTYMQLSSLTSEDSAVYYCVRGYGNYGDYWGQGTTLTVSS
VL: DVVMTQAAFSNPVTLGTSASISCRSSKSLLHSNGITYLYWYLQKPGQSPQLLIYQMSNLASGVPDRFSSSGSGTDFTLRISRVEAEDVGVYYCAQNLELPWTFGGGTKLEIKR
notes: Chimeric antibody, murine variable domains with human constant regions; also called ch5E7; CHG1-M-1N4-5E7
B2: N41 (antibody, V domains shown)
VH: QVQLKQSGPGLVQPSQSLSITCTVSGFSLTNYGVHWVRQSPGKGLEWLGVIWSGGSTDYNAAFISRLSISKDTSKSQVFFKMNSLQADDTAIYYCARELIHAMDNWGQGTSVTVSS
VL: DIQMTQSPASLSVSVGETVTITCRASENIYSNLAWYQQKQGNSPQLLVFAATNLADGVPSRFSGSGSGTQYSLKINSLQSEDFGTYYCQHFWGTPTFGGGTKLEIK
B3: 5E7 (antibody, V domains shown)
VH: QVQLQQPGAELVKPGASVKLSCKASGYIFTSYWMHWVKQRPGQGLEWIGEIDPSDSYTNYNQKFKGKATLTLDKSSSTTYMQLSSLTSEDSAVYYCVRGYGNYGDYWGQGTTLTVSSASTKGP
VL: DVVMTQAAFSNPVTLGTSASISCRSSKSLLHSNGITYLYWYLQKPGQSPQLLIYQMSNLASGVPDRFSSSGSGTDFTLRISRVEAEDVGVYYCAQNLELPWTFGGGTKLEIKRTVAAP

Key:
human Nectin-4 Mutant 4 = target: T1, human Nectin-4 Mutant 4; test: binding to HEK293T cells expressing Nectin-4 mutant
human Nectin-4 Mutant 2 = target: T2, human Nectin-4 Mutant 2; test: as above
human Nectin-4 Mutant 9 = target: T3, human Nectin-4 Mutant 9; test: as above
human Nectin-4 Mutant 6 = target: T4, human Nectin-4 Mutant 6; test: as above
[1] = target: T5, wild-type human Nectin-4 protein (Nectin4-His-BirA); test: Epitope mapping by competition for binding to Nectin-4 (SPR/OCTET); conditions: listed as antibody = 1st mAb injected; 10 μg/mL each
Protocol: Briefly, human Nectin4-His-BirA protein diluted to 5 μg/mL in Kinetic buffer 10× were captured onto the biosensors. The first antibody was injected diluted to 10 μg/mL in Kinetic buffer 10×, followed by a second injection of the first antibody diluted to 10 μg/mL in Kinetic buffer 10× in order to saturate the signal. The second antibody was injected diluted to 10 μg/mL in Kinetic buffer 10×.
Squares with “O” indicate substantial or direct competition between the 1st and 2nd antibody (1st antibody prevents/causes loss of binding of 2nd antibody), squares with “X” indicate potential partial competition (1st antibody causes a potential reduction but not loss of binding of 2nd antibody), squares with “N/A” indicate no competition.

| Molecule | binding result (human Nectin-4 Mutant 4) | binding result (human Nectin-4 Mutant 2) | binding result (human Nectin-4 Mutant 9) | binding result (human Nectin-4 Mutant 6) | competition, 2nd mab injected: 14A5 [1] | competition, 2nd mab injected: MABT64 [1] | competition, 2nd mab injected: N41 [1] | competition, 2nd mab injected: 5E7 [1] |
| --- | --- | --- | --- | --- | --- | --- | --- | --- |
| B1 | binds | binds | binds | binds | – | – | – | – |
| B2 | binds | binds | binds | binds | ◯ | ◯ | ◯ | – |
| B3 | – | – | – | – | – | – | – | ◯ |
